Bridge positions count the residues as written; N and C are the ends. Square brackets hold non-standard residues; d marks the D form. dPhe(3-Cl) = N[C@H](Cc1cccc(Cl)c1)C(=O)O; dPhe(4-Cl) = N[C@H](Cc1ccc(Cl)cc1)C(=O)O; dPhe(4-Me) = Cc1ccc(C[C@@H](N)C(=O)O)cc1; dPhe(2-Cl) = N[C@H](Cc1ccccc1Cl)C(=O)O; dPhe(4-F) = N[C@H](Cc1ccc(F)cc1)C(=O)O; 2Nal = N[C@@H](Cc1ccc2ccccc2c1)C(=O)O; d1Nal = N[C@H](Cc1cccc2ccccc12)C(=O)O; d2Nal = N[C@H](Cc1ccc2ccccc2c1)C(=O)O; dPhe(2-F) = N[C@H](Cc1ccccc1F)C(=O)O; Cit = NC(=O)NCCC[C@H](N)C(=O)O; Nle = CCCC[C@H](N)C(=O)O; Orn = NCCC[C@H](N)C(=O)O; Dab = NCC[C@H](N)C(=O)O

This assay has as its target human melanocortin-1 receptor hMCR-1 expressed by the human melanoma cell line HBL (human, UniProt Q01726 1-317). Nature of the assay: cell-based or functional assay.

Chain of human melanocortin-1 receptor hMCR-1 expressed by the human melanoma cell line HBL (Q01726 whole entry): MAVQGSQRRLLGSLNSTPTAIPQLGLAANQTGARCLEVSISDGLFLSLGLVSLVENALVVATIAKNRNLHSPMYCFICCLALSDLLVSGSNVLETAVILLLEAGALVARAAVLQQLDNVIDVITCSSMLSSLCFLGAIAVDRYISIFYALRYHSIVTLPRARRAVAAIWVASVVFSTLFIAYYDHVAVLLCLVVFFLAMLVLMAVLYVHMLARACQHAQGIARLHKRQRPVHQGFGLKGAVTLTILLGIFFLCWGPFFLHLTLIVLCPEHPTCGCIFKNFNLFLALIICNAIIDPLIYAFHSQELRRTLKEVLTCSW

Ac-[dF]EH[dF]R[Dab]W-NH2 (lactam 2-6) [Ac-D-Phe-cyclo(Glu-His-D-Phe-Arg-Dab)-Trp-NH2]: the “MC-1 Emax (average; cAMP HBL)” value is 75%.
On the same count and under the same terms, the value for Ac-[Nle]E[Cit][dF]R[Dab]W-NH2 (lactam 2-6) [Ac-Nle-cyclo(Glu-Cit-D-Phe-Arg-Dab)-Trp-NH2 (SEQ ID NO: 54)] was 97%.

B1: Ac-Nle-cyclo(Glu-His-D-Phe-Arg-Dab)-Lys-NH2 (SEQ ID NO: 55) (peptide)
peptide: Ac-[Nle]EH[dF]R[Dab]K-NH2
modifications: lactam 2-6
SMILES: CCCC[C@H](NC(C)=O)C(=O)N[C@H]1CCC(=O)NCC[C@@H](C(=O)N[C@@H](CCCCN)C(N)=O)NC(=O)[C@H](CCCNC(=N)N)NC(=O)[C@@H](Cc2ccccc2)NC(=O)[C@H](Cc2c[nH]cn2)NC1=O
Take B1: the “MC-1 EC50 (average; cAMP HBL)” value is 0.175 nM and the “MC-1 Emax (average; cAMP HBL)” value stood at 91%.

B2: Ac-Nle-cyclo(Glu-Orn-D-Phe(4-Cl)-Arg-Dab)-NH2 (peptide)
peptide: Ac-[Nle]E[Orn][dPhe(4-Cl)]R[Dab]-NH2
modifications: lactam 2-6
SMILES: CCCC[C@H](NC(C)=O)C(=O)N[C@H]1CCC(=O)NCC[C@@H](C(N)=O)NC(=O)[C@H](CCCNC(=N)N)NC(=O)[C@@H](Cc2ccc(Cl)cc2)NC(=O)[C@H](CCCN)NC1=O
B2: the “MC-1 EC50 (average; cAMP HBL)” value amounted to 0.1 nM and the “MC-1 Emax (average; cAMP HBL)” value turned out to be 100%.

B3: Ac-Nle-cyclo(Glu-Orn-D-Phe(2-F)-Arg-Dab)-NH2 (peptide)
peptide: Ac-[Nle]E[Orn][dPhe(2-F)]R[Dab]-NH2
modifications: lactam 2-6
SMILES: CCCC[C@H](NC(C)=O)C(=O)N[C@H]1CCC(=O)NCC[C@@H](C(N)=O)NC(=O)[C@H](CCCNC(=N)N)NC(=O)[C@@H](Cc2ccccc2F)NC(=O)[C@H](CCCN)NC1=O
As to B3, the “MC-1 EC50 (average; cAMP HBL)” value is 0.8 nM and the “MC-1 Emax (average; cAMP HBL)” value came out at 95%.
With Ac-[Nle]EP[dF]R[Dab]-NH2 (lactam 2-6) [Ac-Nle-cyclo(Glu-Pro-D-Phe-Arg-Dab)-NH2], the “MC-1 Emax (average; cAMP HBL)” value is 102%.

B4: Ac-Nle-cyclo(Glu-Orn-D-Phe(4-Me)-Arg-Dab)-NH2 (peptide)
peptide: Ac-[Nle]E[Orn][dPhe(4-Me)]R[Dab]-NH2
modifications: lactam 2-6
SMILES: CCCC[C@H](NC(C)=O)C(=O)N[C@H]1CCC(=O)NCC[C@@H](C(N)=O)NC(=O)[C@H](CCCNC(=N)N)NC(=O)[C@@H](Cc2ccc(C)cc2)NC(=O)[C@H](CCCN)NC1=O
For the molecule B4, the “MC-1 EC50 (average; cAMP HBL)” value came to 0.076 nM and the “MC-1 Emax (average; cAMP HBL)” value came out at 96%.
As for Ac-[Nle]EH[dF]R[Orn]W-NH2 (lactam 2-6) [Ac-Nle-cyclo(Glu-His-D-Phe-Arg-Orn)-Trp-NH2], the “MC-1 Emax (average; cAMP HBL)” value came out at 91%.
Still for that read-out and setting: the value for Ac-[Nle]E[Orn][dF]R[Dab]W-NH2 (lactam 2-6) [Ac-Nle-cyclo(Glu-Orn-D-Phe-Arg-Dab)-Trp-NH2 (SEQ ID NO: 58)] was 109%; that for Ac-[Nle]EH[dF]R[Dab][2Nal]-NH2 (lactam 2-6) [Ac-Nle-cyclo(Glu-His-D-Phe-Arg-Dab)-Nal 2-NH2] was 83%; that for Ac-[Nle]EH[dF]R[Dab][d2Nal]-NH2 (lactam 2-6) [Ac-Nle-cyclo(Glu-His-D-Phe-Arg-Dab)-Nal 2-NH2 (SEQ ID NO: 14)] was 69%.

B5: Ac-Nle-cyclo(Glu-Orn-D-Phe-Arg-Dab)-NH2 (peptide)
peptide: Ac-[Nle]E[Orn][dF]R[Dab]-NH2
modifications: lactam 2-6
SMILES: CCCC[C@H](NC(C)=O)C(=O)N[C@H]1CCC(=O)NCC[C@@H](C(N)=O)NC(=O)[C@H](CCCNC(=N)N)NC(=O)[C@@H](Cc2ccccc2)NC(=O)[C@H](CCCN)NC1=O
As for B5, the “MC-1 EC50 (average; cAMP HBL)” value amounted to 0.5 nM and the “MC-1 Emax (average; cAMP HBL)” value came to 102%.
Take Ac-[Nle]E[Orn][dPhe(4-OMe)]R[Dab]-NH2 (lactam 2-6) [Ac-Nle-cyclo(Glu-Orn-D-Phe(4-OMe)-Arg-Dab)-NH2]: the “MC-1 EC50 (average; cAMP HBL)” value was determined as 0.12 nM and the “MC-1 Emax (average; cAMP HBL)” value stood at 99%.

B6: Ac-Nle-cyclo(Glu-Orn-D-Phe(3-Cl)-Arg-Dab)-NH2 (peptide)
peptide: Ac-[Nle]E[Orn][dPhe(3-Cl)]R[Dab]-NH2
modifications: lactam 2-6
SMILES: CCCC[C@H](NC(C)=O)C(=O)N[C@H]1CCC(=O)NCC[C@@H](C(N)=O)NC(=O)[C@H](CCCNC(=N)N)NC(=O)[C@@H](Cc2cccc(Cl)c2)NC(=O)[C@H](CCCN)NC1=O
In the case of B6, the “MC-1 EC50 (average; cAMP HBL)” value amounted to 2 nM and the “MC-1 Emax (average; cAMP HBL)” value is 86%.

B7: Ac-Nle-cyclo(Glu-Pro-D-Phe-Arg-Dab)-Trp-NH2 (peptide)
peptide: Ac-[Nle]EP[dF]R[Dab]W-NH2
modifications: lactam 2-6
SMILES: CCCC[C@H](NC(C)=O)C(=O)N[C@H]1CCC(=O)NCC[C@@H](C(=O)N[C@@H](Cc2c[nH]c3ccccc23)C(N)=O)NC(=O)[C@H](CCCNC(=N)N)NC(=O)[C@@H](Cc2ccccc2)NC(=O)[C@@H]2CCCN2C1=O
B7: the “MC-1 EC50 (average; cAMP HBL)” value is 0.18 nM and the “MC-1 Emax (average; cAMP HBL)” value amounted to 97%.

B8: Ac-Nle-cyclo(Glu-Orn-D-Phe(2-Cl)-Arg-Dab)-NH2 (peptide)
peptide: Ac-[Nle]E[Orn][dPhe(2-Cl)]R[Dab]-NH2
modifications: lactam 2-6
SMILES: CCCC[C@H](NC(C)=O)C(=O)N[C@H]1CCC(=O)NCC[C@@H](C(N)=O)NC(=O)[C@H](CCCNC(=N)N)NC(=O)[C@@H](Cc2ccccc2Cl)NC(=O)[C@H](CCCN)NC1=O
Regarding B8, the “MC-1 EC50 (average; cAMP HBL)” value was determined as 1 nM and the “MC-1 Emax (average; cAMP HBL)” value came to 88%.

B9: Ac-Nle-cyclo(Glu-Orn-D-Phe(4-F)-Arg-Dab)-NH2 (peptide)
peptide: Ac-[Nle]E[Orn][dPhe(4-F)]R[Dab]-NH2
modifications: lactam 2-6
SMILES: CCCC[C@H](NC(C)=O)C(=O)N[C@H]1CCC(=O)NCC[C@@H](C(N)=O)NC(=O)[C@H](CCCNC(=N)N)NC(=O)[C@@H](Cc2ccc(F)cc2)NC(=O)[C@H](CCCN)NC1=O
For the molecule B9, the “MC-1 EC50 (average; cAMP HBL)” value came out at 1 nM and the “MC-1 Emax (average; cAMP HBL)” value worked out at 102%.
As to Ac-[Nle]EH[dF]R[Dab][dW]-NH2 (lactam 2-6) [Ac-Nle-cyclo(Glu-His-D-Phe-Arg-Dab)-D-Trp-NH2], the “MC-1 Emax (average; cAMP HBL)” value was 93%.
For the molecule Ac-[Nle]EH[dF]R[Dab]W-NH2 (lactam 2-6) [Ac-Nle-cyclo(Glu-His-D-Phe-Arg-Dab)-Trp-NH2], the “MC-1 Emax (average; cAMP HBL)” value came out at 95%.
Regarding Ac-[Nle]EK[dF]R[Dab]W-NH2 (lactam 2-6) [Ac-Nle-cyclo(Glu-Lys-D-Phe-Arg-Dab)-Trp-NH2 (SEQ ID NO: 56)], the “MC-1 Emax (average; cAMP HBL)” value came out at 108%.
As for Ac-[Nle]E[Dab][dF]R[Dab]W-NH2 (lactam 2-6) [Ac-Nle-cyclo(Glu-Dab-D-Phe-Arg-Dab)-Trp-NH2 (SEQ ID NO: 57)], the “MC-1 Emax (average; cAMP HBL)” value was 108%.
The same measure, in the same setting: the value for Ac-[Nle]EH[dF]R[Dab][d1Nal]-NH2 (lactam 2-6) [Ac-Nle-cyclo(Glu-His-D-Phe-Arg-Dab)-D-Nal 1-NH2] was 73%.
Ac-[Nle]E[Orn][dPhe(3,4-F)]R[Dab]-NH2 (lactam 2-6) [Ac-Nle-cyclo(Glu-Orn-D-Phe(3,4-F)-Arg-Dab)-NH2]: the “MC-1 EC50 (average; cAMP HBL)” value stood at 1 nM and the “MC-1 Emax (average; cAMP HBL)” value came to 97%.

The values above are taken from patent publication US20120225828A1 (PALATIN TECHNOLOGIES, published 2012).
